Assay results reported in patent US20200179497A1 (HANSA BIOPHARMA, published 2020).

Legend:
[1] = biological target: rabbit anti-BSA (ACRIS, #R1048P); test: cell-based or functional assay
denosumab (XGEVA) = test: cell-based or functional assay

B1: pCART197 (enzyme)
chain: MDDYQRNATEAYAKEVPHQITSVWTKGVTPLTPEQFRYNNEDVIHAPYLANQGWYDITKAFDGKDNLLCGAATAGNMLHWWFDQNKTEIEAYLSKHPEKQKIIFRNQELFDLKEAIRTKDSQTNSQLFEYFRDKAFPYLSARQLGVMPDLVLDMFINGYYLNVFKTQSTDVKRPYQDKDKRGGIFDAVFTRGNQTTLLTARHDLKNKGLNDISTIIKEELTKGRALALSHTYANVSISHVINLWGADFNAEGNLEAIYVTDSDANASIGMKKYFVGINKHGHVAISAKKIEGENIGAQVLGLFTLSSGKDIWQKLNGGGHHHHHH
pCART124 ratio (fold change in potency relative to IdeS), potency ELISA [1]: 8 fold

B2: pCART201 (enzyme)
chain: MSVWTKGVTPLTPEQFRYNNEDVIHAPYLAHQGWYDITKAFDGKDNLLCGAATAGNMLHWWFDQNKTEIEAYLSKHPEKQKIIFNNQELFDLKAAIDTKDSQTNSQLFNYFRDKAFPNLSARQLGVMPDLVLDMFINGYYLNVFKTQSTDVNRPYQDKDKRGGIFDAVFTRGDQTTLLTARHDLKNKGLNDISTIIKQELTEGRALALSHTYANVSISHVINLWGADFNAEGNLEAIYVTDSDANASIGMKKYFVGINAHGHVAISAKKIEGENIGAQVLGLFTLSSGKDIWQKLSGGGHHHHHH
pCART124 ratio (fold change in potency relative to IdeS), potency ELISA [1]: 8 fold

B3: pCART203 (enzyme)
chain: MDDYQRNATEAYAKEVPHQITSVWTKGVTPPEQFTQGEDVIHAPYLAHQGWYDITKAFDGKDNLLCGAATAGNMLHWWFDQNKTEIEAYLSKHPEKQKIIFNNQELFDLKAAIDTKDSQTNSQLFNYFRDKAFPNLSARQLGVMPDLVLDMFINGYYLNVFKTQSTDVNRPYQDKDKRGGIFDAVFTRGDQTTLLTARHDLKNKGLNDISTIIKQELTEGRALALSHTYANVSISHVINLWGADFNAEGNLEAIYVTDSDANASIGMKKYFVGINAHGHVAISAKKIEGENIGAQVLGLFTLSSGKDIWQKLSGGGHHHHHH
cleavage efficacy on SDS-PAGE, fold vs pCART144 (denosumab (XGEVA)): ~3 fold | pCART124 ratio, potency ELISA [1]: ~3.5 fold
